To fix the notation:
B3: CD3 Fc-fusion protein (murine IgG2a Fc) (Fc fusion)
chain: DGNEEMGGITQTPYKVSISGTTVILTCPQYPGSEILWQHNDKNIGGDEDDKNIGSDEDHLSLKEFSELEQSGYYVCYPRGSKPEDANFYLYLRARVCENCMEMD
notes: Soluble antigen of the bridging ELISA; not shown: murine IgG2a Fc

The target in test [1] is T1, Recombinant soluble EpCAM-His6 protein (UniProt P16422 24-265).
T1 chain: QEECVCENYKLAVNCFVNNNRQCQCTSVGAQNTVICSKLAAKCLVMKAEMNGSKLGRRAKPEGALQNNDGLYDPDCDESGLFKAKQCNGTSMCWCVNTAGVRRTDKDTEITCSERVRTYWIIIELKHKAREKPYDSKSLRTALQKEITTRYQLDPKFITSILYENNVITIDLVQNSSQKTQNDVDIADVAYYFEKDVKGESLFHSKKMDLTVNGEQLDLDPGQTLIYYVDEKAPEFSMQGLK
The test is described as follows: ELISA. For orientation: An ELISA detects its analyte on a solid surface through an enzyme-linked reagent.

The target in test [2] is T2, Recombinant soluble EpCAM-His6 protein (UniProt P16422 24-265).
T2 construct: Coated on ELISA plates at 5 ug/ml; also called target antigen; not shown: His6 tag
T2 sequence (looked up): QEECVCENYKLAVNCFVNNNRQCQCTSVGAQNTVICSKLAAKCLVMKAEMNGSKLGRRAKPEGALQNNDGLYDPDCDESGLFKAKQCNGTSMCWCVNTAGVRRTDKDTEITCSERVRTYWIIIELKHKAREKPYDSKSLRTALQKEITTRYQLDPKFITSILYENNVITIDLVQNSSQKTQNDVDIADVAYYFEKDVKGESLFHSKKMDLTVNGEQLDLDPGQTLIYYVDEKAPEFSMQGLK
The test is described as follows: ELISA on coated EpCAM-His6. From the text:
TWICE molecules were engineered with the CD3 antibody SP34 and the CTLA4 antibody Ipilimumab and containing the hetero-Fc dimerization domain. In some examples, the anti-EpCAM antibody Solitomab was used as a Fab (TWICE277 and TWICE278), in other examples this antibody was used as a disulfide-stabilized Fv (dsFv, TWICE332 and TWICE335) by engineering a disulfide between the residue 44 of the VH and residue 100 of the VL (referring to Kabat numbering). The TWICE molecules were expressed and purified by Protein A affinity chromatography as described above, and their ability to bind to EpCAM was tested in an ELISA binding assay. Recombinant soluble EpCAM-His6 protein (produced in-house) was coated on ELISA plates at 5 μg/ml at 4° C. overnight and plates blocked with 1% BSA in PBS. Serial dilutions of TWICE were allowed to bind to EpCAM, and the bound TWICE were detected with a mouse anti-human Fc secondary (JDC-10 Abcam, ab99759).

The target of test [3] is T3, CTLA-4 Fc-fusion protein (murine IgG2a Fc) (murine, UniProt P16410 36-161 (human entry), limits assumed).
T3 construct: Soluble antigen of the bridging ELISA; not shown: murine IgG2a Fc
T3 sequence (P16410 36-161 limits assumed): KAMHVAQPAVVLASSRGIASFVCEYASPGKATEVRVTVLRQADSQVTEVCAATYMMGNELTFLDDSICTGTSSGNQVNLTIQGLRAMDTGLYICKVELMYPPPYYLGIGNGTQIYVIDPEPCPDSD
The test is described as follows: CTLA-4 bridging ELISA on coated EpCAM, CTLA-4-Fc detected with anti-mouse Fc. The method, then:
(§1) To test the domain swap and generation of functional paratopes (i.e., paired VH/VL domains) by TWICE pairs, a bridging ELISA assay was developed that measures the ability of TWICE pairs to bind target antigen and immune cell engaging molecules simultaneously. The schematic drawing in FIG. 9A illustrates the principle of this bridging ELISA. Briefly, the ELISA plates are coated with target antigen (recombinant soluble EpCAM, black hexagon) at a concentration of 5 μg/ml overnight. TWICE molecules can be activated by cleavage with FXa as described above, and then added to the plate at a serial dilution. The TWICE can bind to the target antigen with their target binding moiety, which is drawn as Fab (4 grey ovals) in FIG. 9A. Binding to the target antigen (EpCAM) on the plate brings the TWICEs in close proximity, which allows the immune cell binding domain and the complementary binding domain to undergo domain swap and form complete immune cell binding paratopes (black and white ovals in FIG. 9A). The functional complementation is measured by incubation with an antigen that is bound by the immune cell binding domain, such as CD3 (striped triangle in FIG. 9A). The antigen is provided as an Fc-fusion protein (murine IgG2a Fc), and can therefore be detected with an anti-mouse Fc secondary antibody. […]

Test [4] concerns the target B3. The test is described as follows: CD3 bridging ELISA on coated EpCAM, CD3-Fc detected with anti-mouse Fc. On the procedure:
as §1

Test [5] deals with T4, TWICE277 plus TWICE278, combined, not cleaved.
T4 construct: Two-component pair with intact hetero-Fc dimerization domains
The experiment in a line: CD3 bridging ELISA on coated EpCAM. On the procedure:
as §1

B1: TWICE335 (other)
heavy: EVQLLEQSGAELVRPGTSVKISCKASGYAFTNYWLGWVKQRPGHCLEWIGDIFPGSGNIHYNEKFKGKATLTADKSSSTAYMQLSSLTFEDSAVYFCARLRNWDEPMDYWGQGTTVTVSSGGGSGGGGSQVQLVESGGGVVQPGRSLRLSCAASGFTFSSYTMHWVRQAPGKGLEWVTFISYDGNNKYYADSVKGRFTISRDNSKNTLYLQMNSLRAEDTAIYYCARTGWLGPFDYWGQGTLVTVSSGGGIEGRGGGDKTHTCPPCPAPELLGGPSVFLFPPKPKDTLMISRTPEVTCVVVDVSHEDPEVKFNWYVDGVEVHNAKTKPREEQYQSTYRVVSVLTVLHQDWLNGKEYKCKVSNKALPAPIEKTISKAKGQPREPQVYTLPPSRDELTKNQVKLTCLVKGFYPSDIAVEWESNGQPENNYKTTPPVLDSDGSFFLYSLLTVDKSRWQQGNVFSCSVMHEALHNHYTQKSLSLSPG
light: ELVMTQSPSSLTVTAGEKVTMSCKSSQSLLNSGNQKNYLTWYQQKPGQPPKLLIYWASTRESGVPDRFTGSGSGTDFTLTISSVQAEDLAVYYCQNDYSYPLTFGCGTKLEIKGGGGSGGGGSQAVVTQEPSLTVSPGGTVTLTCRSSTGAVTASNYANWVQQKPGQAPRGLIGGTNKRAPWTPARFSGSLLGGKAALTITGAQAEDEADYYCALWYSNLWVFGGGTKLTVLGGGIEGRGGGDKTHTCPPCPAPELLGGPSVFLFPPKPKDTLMISRTPEVTCVVVDVSHEDPEVKFNWYVDGVEVHNAKTKPREEQYQSTYRVVSVLTVLHQDWLNGKEYKCKVSNKALPAPIEKTISKAKGQPREPQVYTLPPSRDELTKNQVSLTCLVSGFYPSDIAVEWESNGQPENNYKTTPPVLDSDGSFKLYSKLTVDKSRWQQGNVFSCSVMHEALHNHYTQKSLSLSPG
notes: The anti-EpCAM targeting moiety is a disulfide-stabilized Fv (Cys at VH 44 and VL 100, Kabat); hetero-Fc dimerization domain; also called dsFv Ipilimumab VH SP34 VL Fc
Take B1: the EC50 in test [1] was 1.04 nM. For the same molecule, in test [2], the binding result is recorded as “binds”.

B2: TWICE278 (other)
heavy: EVQLLEQSGAELVRPGTSVKISCKASGYAFTNYWLGWVKQRPGHGLEWIGDIFPGSGNIHYNEKFKGKATLTADKSSSTAYMQLSSLTFEDSAVYFCARLRNWDEPMDYWGQGTTVTVSSASTKGPSVFPLAPSSKSTSGGTAALGCLVKDYFPEPVTVSWNSGALTSGVHTFPAVLQSSGLYSLSSVVTVPSSSLGTQTYICNVNHKPSNTKVDKKVEPKSCDKTHTGGGGSGGGGSQVQLVESGGGVVQPGRSLRLSCAASGFTFSSYTMHWVRQAPGKGLEWVTFISYDGNNKYYADSVKGRFTISRDNSKNTLYLQMNSLRAEDTAIYYCARTGWLGPFDYWGQGTLVTVSSGGGIEGRGGGDKTHTCPPCPAPELLGGPSVFLFPPKPKDTLMISRTPEVTCVVVDVSHEDPEVKFNWYVDGVEVHNAKTKPREEQYQSTYRVVSVLTVLHQDWLNGKEYKCKVSNKALPAPIEKTISKAKGQPREPQVYTLPPSRDELTKNQVKLTCLVKGFYPSDIAVEWESNGQPENNYKTTPPVLDSDGSFFLYSLLTVDKSRWQQGNVFSCSVMHEALHNHYTQKSLSLSPG
light: ELVMTQSPSSLTVTAGEKVTMSCKSSQSLLNSGNQKNYLTWYQQKPGQPPKLLIYWASTRESGVPDRFTGSGSGTDFTLTISSVQAEDLAVYYCQNDYSYPLTFGAGTKLEIKRTVAAPSVFIFPPSDEQLKSGTASVVCLLNNFYPREAKVQWKVDNALQSGNSQESVTEQDSKDSTYSLSSTLTLSKADYEKHKVYACEVTHQGLSSPVTKSFNRGECGGGGSGGGGSGGGGSQAVVTQEPSLTVSPGGTVTLTCRSSTGAVTASNYANWVQQKPGQAPRGLIGGTNKRAPWTPARFSGSLLGGKAALTITGAQAEDEADYYCALWYSNLWVFGGGTKLTVLGGGIEGRGGGDKTHTCPPCPAPELLGGPSVFLFPPKPKDTLMISRTPEVTCVVVDVSHEDPEVKFNWYVDGVEVHNAKTKPREEQYQSTYRVVSVLTVLHQDWLNGKEYKCKVSNKALPAPIEKTISKAKGQPREPQVYTLPPSRDELTKNQVSLTCLVSGFYPSDIAVEWESNGQPENNYKTTPPVLDSDGSFKLYSKLTVDKSRWQQGNVFSCSVMHEALHNHYTQKSLSLSPG
notes: One TWICE component: anti-EpCAM (Solitomab) Fab, Ipilimumab VH, SP34 VL, FXa-cleavable linkers, hetero-Fc; Uncleaved in the EpCAM ELISA; In the bridging ELISA it was tested alone, also after FXa cleavage; also called Ipilimumab VH SP34 VL Fc
Turning to B2, the values for the binding result in test [3], in test [2] and in test [4] were “no binding”, “binds” and “no binding”, respectively. In test [1], the EC50 was determined as 1.21 nM.

With B3, the binding result in test [5] is listed as “no binding”.

The EC50 is the midpoint of the concentration-response curve.

Values taken from patent US20200190213A1 (REVITOPE, published 2020).
